Consider four molecules from publication PMC3431187 (Molecular cell, 2012).

Substitutions are numbered along the chain they refer to. No end group written: not given here. fluorescein = fluorescein label on the N-terminus, attached through a 6-aminohexanoyl (Ahx) spacer; Ahx = NCCCCCC(=O)O

To fix the notation:
T1: rhophilin 2-PDZ K576E/K579E (human, UniProt Q8IUC4 515-593, K576E | K579E)
T1 sequence (looked up): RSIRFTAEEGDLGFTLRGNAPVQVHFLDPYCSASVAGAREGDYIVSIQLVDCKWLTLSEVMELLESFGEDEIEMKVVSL

T2: rhophilin 2-PDZ K576A/K579A (human, UniProt Q8IUC4 515-593, K576A | K579A)
T2 sequence (looked up): T1 sequence (looked up) with E62A, E65A

B1: rhophilin 2-PDZ (PDZ domain of rhophilin-2), wild type (domain or fragment, human, UniProt Q8IUC4 515-593, looked up)
chain: T1 sequence (looked up) with E62K, E65K
B2: F-Ahx-EYLGLDVPV (N-fluorescein-labeled ErbB2 C-terminal peptide) (peptide)
peptide: {fluorescein-Ahx}-EYLGLDVPV
B3: GST-EYLGLDVPV (GST fusion of the C-terminal peptide of ErbB2) (peptide)
chain: {GST}-EYLGLDVPV
B4: F-Ahx-IRDYTQSSSSL (N-terminal-fluorescein-labeled mGluR5 C-terminal peptide) (peptide)
peptide: {fluorescein-Ahx}-IRDYTQSSSSL

In assay [1] the target is other peptides (tested with rhophilin 2-PDZ, Table S4). Nature of the assay: fluorescence polarisation. Background: Fluorescence polarisation rises when a labelled molecule tumbles more slowly, as on binding a larger partner.
Assay [2] deals with B2. Nature of the assay: fluorescence polarisation.
For assay [3], the target named is B1. Briefly: fluorescence polarisation.
The target of assay [4] is T1, rhophilin 2-PDZ K576E/K579E. Nature of the assay: pull-down.
Assay [5] concerns the target B1. Briefly: pull-down.
For assay [6], the target named is T2, rhophilin 2-PDZ K576A/K579A. Nature of the assay: pull-down.
In assay [7] the target is tamalin-PDZ (PDZ domain of tamalin), wild type (mouse, UniProt Q9JJA9 100-186). Nature of the assay: fluorescence polarisation.
Sequence of tamalin-PDZ (PDZ domain of tamalin), wild type (Q9JJA9 100-186): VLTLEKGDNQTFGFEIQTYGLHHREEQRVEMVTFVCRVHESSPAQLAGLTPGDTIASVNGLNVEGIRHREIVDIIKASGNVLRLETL

For B1, the fold decrease in affinity with PM vesicles against without in assay [1] is less than 1.8 fold. Moreover, the “fold increase in affinity with PM vesicles against without” value in assay [2] came to 2 fold.
With B2, in assay [3], the binding result is reported as “binds”.
In the case of B3, the binding result in assay [4], in assay [5] and in assay [6] was “binds” each time.
Turning to B4, the binding result in assay [7] is reported as “binds”.
